Reference: publication PMC10397247

Experiments:
4H575-bN = target: T1, 4H575-bN; test: two-hybrid library CCNG1;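 note: natural log of median RNA to DNA barcode read ratio; higher means stronger binding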
T1 chain: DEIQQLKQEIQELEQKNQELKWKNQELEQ

4H918-bN = target: T2, 4H918-bN; test: two-hybrid library CCNG1;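 note: natural log of median RNA to DNA barcode read ratio; higher means stronger binding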
T2 chain: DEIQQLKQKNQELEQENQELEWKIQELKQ

O13 = target: T3, O13; test: two-hybrid library CCNG1;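 note: natural log of median RNA to DNA barcode read ratio; higher means stronger binding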
T3 chain: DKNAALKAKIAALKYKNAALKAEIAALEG

4H797-bN = target: T4, 4H797-bN; test: two-hybrid library CCNG1;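 note: natural log of median RNA to DNA barcode read ratio; higher means stronger binding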
T4 chain: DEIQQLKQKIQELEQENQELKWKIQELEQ

4H754-bN = target: T5, 4H754-bN; test: two-hybrid library CCNG1;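 note: natural log of median RNA to DNA barcode read ratio; higher means stronger binding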
T5 chain: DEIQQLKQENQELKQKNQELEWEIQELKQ

4H457-bN = target: T6, 4H457-bN; test: two-hybrid library CCNG1;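 note: natural log of median RNA to DNA barcode read ratio; higher means stronger binding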
T6 chain: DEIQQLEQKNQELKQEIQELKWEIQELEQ

4H3427-bN = target: T7, 4H3427-bN; test: two-hybrid library CCNG1
T7 chain: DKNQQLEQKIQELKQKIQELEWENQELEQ

4H953-bN = target: T8, 4H953-bN; test: two-hybrid library CCNG1
T8 chain: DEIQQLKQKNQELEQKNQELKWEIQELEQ

4H967-bN = target: T9, 4H967-bN; test: two-hybrid library CCNG1
T9 chain: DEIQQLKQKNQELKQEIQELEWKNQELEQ

4H855-bN = target: T10, 4H855-bN; test: two-hybrid library CCNG1
T10 chain: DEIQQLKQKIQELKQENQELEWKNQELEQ

4H3926-bN = target: T11, 4H3926-bN; test: two-hybrid library CCNG1
T11 chain: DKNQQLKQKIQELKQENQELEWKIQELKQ

4H717-bA = target: T12, 4H717-bA; test: two-hybrid library CCNG1
T12 chain: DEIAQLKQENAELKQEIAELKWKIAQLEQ

4H346-bN = target: T13, 4H346-bN; test: two-hybrid library CCNG1
T13 chain: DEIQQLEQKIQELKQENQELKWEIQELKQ

4H607-bN = target: T14, 4H607-bN; test: two-hybrid library CCNG1
T14 chain: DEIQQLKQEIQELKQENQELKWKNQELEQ

4H687-bN = target: T15, 4H687-bN; test: two-hybrid library CCNG1
T15 chain: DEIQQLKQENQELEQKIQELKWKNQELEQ

4H454-bN = target: T16, 4H454-bN; test: two-hybrid library CCNG1
T16 chain: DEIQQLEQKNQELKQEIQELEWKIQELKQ

4H72-bN = target: T17, 4H72-bN; test: two-hybrid library CCNG1
T17 chain: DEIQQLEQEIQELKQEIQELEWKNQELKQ

4H717-bN = target: T18, 4H717-bN; test: two-hybrid library CCNG1
T18 chain: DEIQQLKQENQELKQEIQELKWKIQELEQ

4H780-bN = target: T19, 4H780-bN; test: two-hybrid library CCNG1
T19 chain: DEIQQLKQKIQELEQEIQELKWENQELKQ

4H683-bN = target: T20, 4H683-bN; test: two-hybrid library CCNG1
T20 chain: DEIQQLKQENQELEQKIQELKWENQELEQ

4H4073-bN = target: T21, 4H4073-bN; test: two-hybrid library CCNG1
T21 chain: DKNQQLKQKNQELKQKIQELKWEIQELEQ

4H4001-bN = target: T22, 4H4001-bN; test: two-hybrid library CCNG1
T22 chain: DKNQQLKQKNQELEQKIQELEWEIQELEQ

4H968-bN = target: T23, 4H968-bN; test: two-hybrid library CCNG1
T23 chain: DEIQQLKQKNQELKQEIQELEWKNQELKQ

4H3782-bN = target: T24, 4H3782-bN; test: two-hybrid library CCNG1
T24 chain: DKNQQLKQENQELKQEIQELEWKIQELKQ

4H3855-bN = target: T25, 4H3855-bN; test: two-hybrid library CCNG1
T25 chain: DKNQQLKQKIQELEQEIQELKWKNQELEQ

4H908-bN = target: T26, 4H908-bN; test: two-hybrid library CCNG1
T26 chain: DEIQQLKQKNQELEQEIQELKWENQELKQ

4H883-bN = target: T27, 4H883-bN; test: two-hybrid library CCNG1
T27 chain: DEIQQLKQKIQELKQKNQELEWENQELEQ

4H568-bN = target: T28, 4H568-bN; test: two-hybrid library CCNG1
T28 chain: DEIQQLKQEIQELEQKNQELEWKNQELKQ

4H2697-bH = target: T29, 4H2697-bH; test: two-hybrid library CCNG1
T29 chain: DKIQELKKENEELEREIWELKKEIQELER

4H883-bH = target: T30, 4H883-bH; test: two-hybrid library CCNG1
T30 chain: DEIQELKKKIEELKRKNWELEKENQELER

4H797-bH = target: T31, 4H797-bH; test: two-hybrid library CCNG1
T31 chain: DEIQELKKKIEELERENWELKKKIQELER

4H4001-bH = target: T32, 4H4001-bH; test: two-hybrid library CCNG1
T32 chain: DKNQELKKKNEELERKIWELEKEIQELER

4H2610-bH = target: T33, 4H2610-bH; test: two-hybrid library CCNG1
T33 chain: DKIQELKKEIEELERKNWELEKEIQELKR

4H918-bH = target: T34, 4H918-bH; test: two-hybrid library CCNG1
T34 chain: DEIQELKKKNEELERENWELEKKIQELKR

4H3606-bH = target: T35, 4H3606-bH; test: two-hybrid library CCNG1
T35 chain: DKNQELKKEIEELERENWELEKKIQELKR

4H331-bH = target: T36, 4H331-bH; test: two-hybrid library CCNG1
T36 chain: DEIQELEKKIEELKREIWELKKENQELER

4H3782-bH = target: T37, 4H3782-bH; test: two-hybrid library CCNG1
T37 chain: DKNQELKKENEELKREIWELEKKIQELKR

4H370-bH = target: T38, 4H370-bH; test: two-hybrid library CCNG1
T38 chain: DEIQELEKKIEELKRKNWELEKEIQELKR

4H2667-bH = target: T39, 4H2667-bH; test: two-hybrid library CCNG1
T39 chain: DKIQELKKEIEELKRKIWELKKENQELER

4H568-bH = target: T40, 4H568-bH; test: two-hybrid library CCNG1
T40 chain: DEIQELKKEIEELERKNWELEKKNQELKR

4H462-bH = target: T41, 4H462-bH; test: two-hybrid library CCNG1
T41 chain: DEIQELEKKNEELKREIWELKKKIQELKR

4H72-bH = target: T42, 4H72-bH; test: two-hybrid library CCNG1
T42 chain: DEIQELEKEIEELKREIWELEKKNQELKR

4H607-bH = target: T43, 4H607-bH; test: two-hybrid library CCNG1
T43 chain: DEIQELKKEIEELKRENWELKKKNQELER

4H687-bH = target: T44, 4H687-bH; test: two-hybrid library CCNG1
T44 chain: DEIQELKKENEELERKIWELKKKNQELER

4H2618-bH = target: T45, 4H2618-bH; test: two-hybrid library CCNG1
T45 chain: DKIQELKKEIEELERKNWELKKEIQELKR

4H3843-bH = target: T46, 4H3843-bH; test: two-hybrid library CCNG1
T46 chain: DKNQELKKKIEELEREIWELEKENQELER

4H3189-bH = target: T47, 4H3189-bH; test: two-hybrid library CCNG1
T47 chain: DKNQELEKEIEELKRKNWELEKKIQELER

4H953-bH = target: T48, 4H953-bH; test: two-hybrid library CCNG1
T48 chain: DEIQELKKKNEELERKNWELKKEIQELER

4H932-bN = target: T49, 4H932-bN; test: two-hybrid library CCNG1
T49 chain: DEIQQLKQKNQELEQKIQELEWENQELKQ

4H949-bN = target: T50, 4H949-bN; test: two-hybrid library CCNG1
T50 chain: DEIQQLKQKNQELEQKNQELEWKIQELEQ

P8A-bN = target: T51, P8A-bN; test: two-hybrid library CCNG1
T51 chain: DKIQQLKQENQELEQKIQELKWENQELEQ

4H796-bN = target: T52, 4H796-bN; test: two-hybrid library CCNG1
T52 chain: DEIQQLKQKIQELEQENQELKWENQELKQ

4H730-bN = target: T53, 4H730-bN; test: two-hybrid library CCNG1
T53 chain: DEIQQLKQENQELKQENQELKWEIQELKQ

4H56-bN = target: T54, 4H56-bN; test: two-hybrid library CCNG1
T54 chain: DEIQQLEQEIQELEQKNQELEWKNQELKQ

O16 = target: T55, O16; test: two-hybrid library CC0; details: mean of both orientations
T55 chain: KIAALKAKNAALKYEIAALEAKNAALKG

O5 = target: T56, O5; test: two-hybrid library CC0; details: mean of both orientations
T56 chain: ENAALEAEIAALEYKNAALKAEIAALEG

O2 = target: T57, O2; test: two-hybrid library CC0; details: mean of both orientations
T57 chain: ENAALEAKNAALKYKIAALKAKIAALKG

O9 = target: T58, O9; test: two-hybrid library CC0; details: mean of both orientations
T58 chain: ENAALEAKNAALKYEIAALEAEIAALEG

O6 = target: T59, O6; test: two-hybrid library CC0; details: mean of both orientations
T59 chain: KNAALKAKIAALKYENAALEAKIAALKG

O3 = target: T60, O3; test: two-hybrid library CC0; details: mean of both orientations
T60 chain: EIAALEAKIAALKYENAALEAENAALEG

O8 = target: T61, O8; test: two-hybrid library CC0; details: mean of both orientations
T61 chain: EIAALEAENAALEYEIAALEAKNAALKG

O7 = target: T62, O7; test: two-hybrid library CC0; details: mean of both orientations
T62 chain: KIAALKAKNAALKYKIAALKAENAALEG

O15 = target: T63, O15; test: two-hybrid library CC0; details: mean of both orientations
T63 chain: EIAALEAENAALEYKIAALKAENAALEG

O4 = target: T64, O4; test: two-hybrid library CC0; details: mean of both orientations
T64 chain: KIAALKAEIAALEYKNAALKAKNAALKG

B1: 4H3427-bN (peptide)
chain: DKNQQLEQKIQELKQKIQELEWENQELEQ
With B1 the interaction score (4H575-bN) was -1.57, the interaction score (4H918-bN) was -1.53 and the interaction score (O13) was -2.44. For the same binder, the interaction score (4H797-bN) was -0.295, the interaction score (4H754-bN) was -1.39 and the interaction score (4H457-bN) was -0.939. The interaction score (4H3427-bN) was -0.0454, the interaction score (4H953-bN) was -0.667 and the interaction score (4H967-bN) was -1.07. It also gave an interaction score (4H855-bN) of -0.804, an interaction score (4H3926-bN) of -1.1 and an interaction score (4H717-bA) of -0.117. It also gave an interaction score (4H346-bN) of -2.04, an interaction score (4H607-bN) of -0.874 and an interaction score (4H687-bN) of -0.849. For the same binder, the interaction score (4H454-bN) was -0.734, the interaction score (4H72-bN) was -1.54 and the interaction score (4H717-bN) was -0.704. The interaction score (4H780-bN) was -1.3, the interaction score (4H683-bN) was -2.33 and the interaction score (4H4073-bN) was -1.1. The interaction score (4H4001-bN) was -1, the interaction score (4H968-bN) was -1.97 and the interaction score (4H3782-bN) was -0.306. For the same binder, the interaction score (4H3855-bN) was -0.838, the interaction score (4H908-bN) was -0.725 and the interaction score (4H883-bN) was -1.75. It also gave an interaction score (4H568-bN) of -0.0377.

B2: 4H2610-bH (peptide)
chain: DKIQELKKEIEELERKNWELEKEIQELKR
With B2 the interaction score (4H2697-bH) was -0.13, the interaction score (4H883-bH) was 1.68 and the interaction score (4H797-bH) was -0.388. It also gave an interaction score (4H4001-bH) of 0.47, an interaction score (4H2610-bH) of 1.39 and an interaction score (4H918-bH) of -0.153. For the same binder, the interaction score (4H3606-bH) was 0.997, the interaction score (4H331-bH) was -0.139 and the interaction score (4H3782-bH) was -0.423. For the same binder, the interaction score (4H370-bH) was 1.24, the interaction score (4H2667-bH) was -0.792 and the interaction score (4H568-bH) was 1.22. For the same binder, the interaction score (4H462-bH) was 1.13, the interaction score (4H72-bH) was 0.879 and the interaction score (4H607-bH) was -0.288. It also gave an interaction score (4H687-bH) of 0.522, an interaction score (4H2618-bH) of -2.22 and an interaction score (4H3843-bH) of 0.428. It also gave an interaction score (4H3189-bH) of 0.354 and an interaction score (4H953-bH) of -1.02.

B3: 4H56-bN (peptide)
chain: DEIQQLEQEIQELEQKNQELEWKNQELKQ
B3 showed an interaction score (O13) of -0.5, an interaction score (4H932-bN) of -0.791 and an interaction score (4H949-bN) of -1.76. It also gave an interaction score (P8A-bN) of -1.19, an interaction score (4H796-bN) of 0.00289 and an interaction score (4H730-bN) of 0.387. It also gave an interaction score (4H56-bN) of 0.863.

B4: O15 (peptide)
chain: EIAALEAENAALEYKIAALKAENAALEG
B4 gave an interaction score (O16) of 1.2, an interaction score (O5) of -2.15 and an interaction score (O2) of -2.7. For the same binder, the interaction score (O9) was -2.72, the interaction score (O6) was -2.79 and the interaction score (O3) was -2.8. It also gave an interaction score (O8) of -2.41, an interaction score (O7) of -1.87 and an interaction score (O15) of -2.64. The interaction score (O4) was -2.54.
